{"source": "paper PMC11922060", "biological_target": "Sumo-tagged Drosophila Spd-2 C-terminal half (Spd-2 697-1146) P817D, phosphorylated in vitro by human PLK1 (UniProt Q9VV79)", "sequence (Q9VV79 entry or part of it P817D | P817D)": "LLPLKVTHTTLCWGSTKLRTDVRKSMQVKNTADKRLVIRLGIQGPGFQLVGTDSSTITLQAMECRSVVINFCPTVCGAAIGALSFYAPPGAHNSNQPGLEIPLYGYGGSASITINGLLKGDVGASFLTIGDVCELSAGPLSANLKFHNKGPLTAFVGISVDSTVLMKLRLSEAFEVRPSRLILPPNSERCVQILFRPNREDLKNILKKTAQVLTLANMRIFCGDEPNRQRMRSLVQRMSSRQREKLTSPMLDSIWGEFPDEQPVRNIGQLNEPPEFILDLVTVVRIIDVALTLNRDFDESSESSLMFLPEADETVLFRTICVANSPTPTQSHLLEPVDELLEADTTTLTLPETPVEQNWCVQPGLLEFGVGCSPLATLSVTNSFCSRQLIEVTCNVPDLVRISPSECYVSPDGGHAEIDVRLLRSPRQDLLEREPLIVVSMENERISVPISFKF", "assay": "SEC-MALS", "settings": "50 µM protein, phosphorylated in vitro with recombinant human PLK1 kinase; parent: est. 0.50; read off a plot", "data": [{"substance": "Sumo-tagged Drosophila Spd-2 C-terminal half (Spd-2 697-1146), wild type, phosphorylated in vitro by human PLK1 (from UniProt Q9VV79) P817D", "values": [{"measurement": "response", "value": 0.14}]}]}
